{"source": "patent US20210277061A1", "about": "(UNIVERSITY OF HONG KONG, published 2021)", "binders": {"B1": {"name": "compound 43 (competitor R8-K) (peptide)", "peptide": "Cbz-QTAKK(2Furoyl)-NH2", "SMILES": "C[C@H](NC(=O)[C@@H](NC(=O)[C@H](CCC(N)=O)NC(=O)OCc1ccccc1)[C@@H](C)O)C(=O)N[C@@H](CCCCN)C(=O)N[C@@H](CCCCNC(=O)c1ccco1)C(N)=O", "notes": "Full structure only as drawing"}, "B2": {"name": "compound 45 (competitor R8-Q) (peptide)", "peptide": "Cbz-QTAQK(2Furoyl)-NH2", "SMILES": "C[C@H](NC(=O)[C@@H](NC(=O)[C@H](CCC(N)=O)NC(=O)OCc1ccccc1)[C@@H](C)O)C(=O)N[C@@H](CCC(N)=O)C(=O)N[C@@H](CCCCNC(=O)c1ccco1)C(N)=O", "notes": "as for B1"}, "B3": {"name": "compound 26 (XL-07j) (peptide)", "peptide": "Cbz-QTARK(2Furoyl)-NH2", "SMILES": "C[C@H](NC(=O)[C@@H](NC(=O)[C@H](CCC(N)=O)NC(=O)OCc1ccccc1)[C@@H](C)O)C(=O)N[C@@H](CCCNC(=N)N)C(=O)N[C@@H](CCCCNC(=O)c1ccco1)C(N)=O", "notes": "also called 4.7j"}, "B4": {"name": "compound 85 (positive control), H3K9cr peptide (peptide)", "peptide": "KQTARK(Crotonyl(E))STGG-NH2", "modifications": "N-terminus assumed", "SMILES": "C/C=C/C(=O)NCCCC[C@H](NC(=O)[C@H](CCCNC(=N)N)NC(=O)[C@H](C)NC(=O)[C@@H](NC(=O)[C@H](CCC(N)=O)NC(=O)[C@@H](N)CCCCN)[C@@H](C)O)C(=O)N[C@@H](CO)C(=O)N[C@H](C(=O)NCC(=O)NCC(N)=O)[C@@H](C)O"}, "B5": {"name": "compound 1 (XL-01) (peptide)", "peptide": "KQTARKSTGG-NH2", "modifications": "not fully specified (residue 6); also: Lys6 acylated with group R, structure drawing only", "notes": "also called 4.1"}}, "key": {"[1]": {"target": "T1, AF9 YEATS domain, His-AF9 (1-138) (human, UniProt P42568 1-138)", "T1 construct": "Expressed in E. coli; not shown: His tag", "T1 sequence (looked up)": "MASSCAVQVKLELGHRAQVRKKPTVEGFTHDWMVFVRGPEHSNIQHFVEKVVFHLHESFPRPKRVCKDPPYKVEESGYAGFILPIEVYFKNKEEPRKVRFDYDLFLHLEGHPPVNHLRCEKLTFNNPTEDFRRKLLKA", "test": "photo-cross-linking competition screen at 0.3 µM, in-gel fluorescence"}, "[2]": {"target": "T2, ENL YEATS domain, His-SUMO-ENL (1-138) (human, UniProt Q03111 1-138)", "T2 construct": "Expressed in E. coli; not shown: His-SUMO tag", "T2 sequence (looked up)": "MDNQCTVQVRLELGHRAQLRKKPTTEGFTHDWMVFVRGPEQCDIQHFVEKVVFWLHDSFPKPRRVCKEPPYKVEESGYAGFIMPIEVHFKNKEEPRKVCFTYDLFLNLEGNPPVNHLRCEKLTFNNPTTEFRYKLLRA", "test": "photo-cross-linking competition vs photoaffinity probe, in-gel fluorescence"}, "[3]": {"target": "T3, YEATS2 YEATS domain, His-SUMO-YEATS2 (201-332) (human, UniProt Q9ULM3 201-332)", "T3 construct": "range 201-332; Expressed in E. coli; also called YEATS2 domain; not shown: His-SUMO tag", "T3 sequence (looked up)": "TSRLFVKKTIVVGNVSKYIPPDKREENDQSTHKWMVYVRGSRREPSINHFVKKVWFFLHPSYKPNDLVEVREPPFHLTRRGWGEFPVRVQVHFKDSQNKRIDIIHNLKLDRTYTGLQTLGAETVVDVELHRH", "test": "photo-cross-linking competition vs photoaffinity probe, in-gel fluorescence"}, "[4]": {"target": "T1, AF9 YEATS domain, His-AF9 (1-138)", "test": "photo-cross-linking competition vs photoaffinity probe, in-gel fluorescence"}, "[5]": {"target": "T4, Gas41 YEATS domain, His-Gas41 (15-159) (human, UniProt O95619 15-159)", "T4 construct": "Expressed in E. coli; not shown: His tag", "T4 sequence (O95619 15-159 limits assumed)": "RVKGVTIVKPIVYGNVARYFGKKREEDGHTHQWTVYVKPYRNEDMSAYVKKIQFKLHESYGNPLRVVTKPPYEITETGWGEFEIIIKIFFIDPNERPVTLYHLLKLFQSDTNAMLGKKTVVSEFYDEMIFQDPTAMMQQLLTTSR", "test": "photo-cross-linking competition vs photoaffinity probe, in-gel fluorescence"}, "[6]": {"target": "T2, ENL YEATS domain, His-SUMO-ENL (1-138)", "test": "photo-cross-linking competition vs photoaffinity probe, in-gel fluorescence", "remark": "listed apart in the source"}, "[7]": {"target": "T3, YEATS2 YEATS domain, His-SUMO-YEATS2 …", "test": "photo-cross-linking competition vs photoaffinity probe, in-gel fluorescence", "remark": "listed apart in the source"}, "[8]": {"target": "T1, AF9 YEATS domain, His-AF9 (1-138)", "test": "photo-cross-linking competition vs photoaffinity probe, in-gel fluorescence", "remark": "listed apart in the source"}, "[9]": {"target": "T4, Gas41 YEATS domain, His-Gas41 (15-159)", "test": "photo-cross-linking competition vs photoaffinity probe, in-gel fluorescence", "remark": "listed apart in the source"}, "[10]": {"target": "T3, YEATS2 YEATS domain, His-SUMO-YEATS2 …", "test": "photo-cross-linking-based competition against the photoaffinity probe on the YEATS2 YEATS domain, in-gel fluorescence"}, "[11]": {"target": "T1, AF9 YEATS domain, His-AF9 (1-138)", "test": "method and target not named in the sentence (AF9 YEATS by context)"}, "[12]": {"target": "T1, AF9 YEATS domain, His-AF9 (1-138)", "test": "ITC"}, "[13]": {"target": "T1, AF9 YEATS domain, His-AF9 (1-138)", "test": "ITC", "remark": "listed apart in the source"}, "[14]": {"target": "T1, AF9 YEATS domain, His-AF9 (1-138)", "test": "photo-cross-linking-based competition against the photoaffinity probe (probe 1) on AF9 YEATS domain, in-gel fluorescence"}}, "note": "Where two headings read alike, the source gives them in different places. No end group written: not given here. *: point of attachment. Oxazole(5-CO) = O=C(c1cnco1)*; Crotonyl(E) = C/C=C/C(=O)*; 2Furoyl = O=C(c1ccco1)*; Cbz = O=C(OCc1ccccc1)*", "data": [{"binder": "B1", "values": [{"measurement": "binding result", "setting": "[1]", "result": "binds"}]}, {"binder": "B2", "values": [{"measurement": "binding result", "setting": "[1]", "result": "binds"}]}, {"binder": "B3", "values": [{"measurement": "IC50", "setting": "[2]", "result": 1.3, "unit": "µM"}, {"measurement": "IC50", "setting": "[3]", "result": 42.4, "unit": "µM"}, {"measurement": "IC50", "setting": "[4]", "result": 0.26, "unit": "µM"}, {"measurement": "IC50", "setting": "[5]", "result": 123, "unit": "µM"}, {"measurement": "IC50", "setting": "[6]", "result": 1.3, "unit": "µM"}, {"measurement": "IC50", "setting": "[7]", "result": 42.4, "unit": "µM"}, {"measurement": "IC50", "setting": "[8]", "result": 0.26, "unit": "µM"}, {"measurement": "IC50", "setting": "[9]", "result": 123, "unit": "µM"}, {"measurement": "IC50", "setting": "[10]", "result": 42.2, "unit": "µM"}, {"measurement": "Kd", "setting": "[11]", "result": 0.33, "unit": "µM"}]}, {"binder": "Cbz-QTARK(Oxazole(5-CO))-NH2 (also called 4.13a)", "note": "[compound 27 (XL-13a)]", "values": [{"measurement": "IC50", "setting": "[3]", "result": 98.7, "unit": "µM"}, {"measurement": "IC50", "setting": "[4]", "result": 0.24, "unit": "µM"}, {"measurement": "IC50", "setting": "[5]", "result": 14.5, "unit": "µM"}, {"measurement": "IC50", "setting": "[7]", "result": 98.7, "unit": "µM"}, {"measurement": "IC50", "setting": "[8]", "result": 0.24, "unit": "µM"}, {"measurement": "IC50", "setting": "[9]", "result": 14.5, "unit": "µM"}, {"measurement": "Kd", "setting": "[11]", "result": 0.131, "unit": "µM"}]}, {"binder": "B4", "values": [{"measurement": "IC50", "setting": "[2]", "result": 52.7, "unit": "µM"}, {"measurement": "IC50", "setting": "[4]", "result": 6, "unit": "µM"}, {"measurement": "Kd", "setting": "[12]", "result": 14.8, "unit": "µM"}, {"measurement": "Kd", "setting": "[13]", "result": 14.7, "unit": "µM"}, {"measurement": "N (sites)", "setting": "[13]", "result": 0.96, "unit": "sites"}, {"measurement": "ΔH", "setting": "[13]", "result": -11.9, "unit": "kcal/mol"}, {"measurement": "ΔS", "setting": "[13]", "result": -17.8, "unit": "cal/mol/deg"}]}, {"binder": "B5", "values": [{"measurement": "IC50", "setting": "[4]", "result": 27.9, "unit": "µM"}, {"measurement": "IC50", "setting": "[14]", "result": 31.8, "unit": "µM"}]}]}
